According to IntAct's records for PubMed 18292230:

B1: E3 ubiquitin-protein ligase CHIP (Homo sapiens), Q9UNE7-1 (parent)
chain: MKGKEEKEGGARLGAGGGSPEKSPSAQELKEQGNRLFVGRKYPEAAACYGRAITRNPLVAVYYTNRALCYLKMQQHEQALADCRRALELDGQSVKAHFFLGQCQLEMESYDEAIANLQRAYSLAKEQRLNFGDDIPSALRIAKKKRWNSIEERRIHQESELHSYLSRLIAAERERELEECQRNHEGDEDDSHVRAQQACIEAKHDKYMADMDELFSQVDEKRKKRDIPDYLCGKISFELMREPCITPSGITYDRKDIEEHLQRVGHFDPVTRSPLTQEQLIPNLAMKEVIDAFISENGWVEDY

Variants of: B1
Conditions: with akt1_human AKT1, P31749
Chain of akt1_human AKT1, P31749 (P31749 whole entry): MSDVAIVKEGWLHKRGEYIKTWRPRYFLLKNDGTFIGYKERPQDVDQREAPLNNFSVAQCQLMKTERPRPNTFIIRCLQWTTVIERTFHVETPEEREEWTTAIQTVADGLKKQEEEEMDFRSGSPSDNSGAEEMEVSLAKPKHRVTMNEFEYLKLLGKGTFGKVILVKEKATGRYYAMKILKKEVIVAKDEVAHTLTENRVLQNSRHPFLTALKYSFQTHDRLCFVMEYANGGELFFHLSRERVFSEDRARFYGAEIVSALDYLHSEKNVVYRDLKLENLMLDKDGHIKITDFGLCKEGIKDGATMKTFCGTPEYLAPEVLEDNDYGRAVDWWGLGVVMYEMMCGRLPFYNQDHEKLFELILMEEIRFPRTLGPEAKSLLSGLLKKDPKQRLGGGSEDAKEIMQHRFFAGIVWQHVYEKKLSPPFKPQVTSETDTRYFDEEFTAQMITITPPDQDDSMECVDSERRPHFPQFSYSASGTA

Variant | effect of a mutation on the interaction
K30A | disrupting interaction
